Ends that are not written are not given here.

Data on four molecules can be found in patent US20240018501A1, “HIGHER PERFORMANCE PROTEASES FOR SCARLESS PEPTIDE TAG REMOVAL” (priority 2017, published 2024).

One series has as its system T1, Pyr-AAIV.
T1 sequence: AAIV

In a further series the test system is T2, Pyr-AAAVK.
T2 sequence: AAAVK

For another series, the system named is T3, Pyr-LGPAIK.
T3 sequence: LGPAIK

The subject of a further series is T4, Pyr-A.
T4 sequence: A

The subject of another series is T5, OBu-AGPAIR.
T5 sequence: AGPAIR

A further series relates to T6, Pyr-AA.
T6 sequence: AA

A further series relates to T7, Pyr-APVLA.
T7 sequence: APVLA

For another series, the system named is T8, Pyr-AAI.
T8 sequence: AAI

The next series relates to MBP-ElxP. Briefly: MBP-ElxP activity assay by MALDI-TOF MS. The note with it: non-cognate NisA and NisA mutants. In kind it is biochemical, Staphylococcus epidermidis. The protocol:
A typical activity assay consisted of 50 mM Tris HCl pH 8.0, 50 μM peptide, 5 μM MBP-ElxP in a final volume of 100 μL. The sample was incubated for 2 h at room temperature. To monitor cleavage activity, samples were desalted using a zip tip concentrator (Millipore), mixed in a 1:1 ratio with sinapinic acid, and spotted on a MALDI-TOF Bruker plate. Ion intensities for the resulting precursor peptide, leader peptide and core peptide were normalized and the proteolytic efficiency was measure as the amount of substrate left after cleavage reaction (Table 1). Reactions were performed with tagged enzyme and substrates unless otherwise noticed.

The target in the next series is His6-NisA (UniProt P13068).
Series [1] concerns the target HalM1-modified HalA1-GDVQAE.
Series [2] has as its target NisA-I1C (with GDVQAE), P13068.
Series [3] addresses ProcA1.7-T1C (with GDVQAE).
In series [4] the target is CylLS″ with a 5-amino acid N-terminal peptide.
For series [5], the target named is His6-ProcA1.7 with GDVQAE inserted between the His6-tag sequence and ProcA1.7.
In series [6] the target is CylLL″ with a 5-amino acid peptide remaining from the leader.
Series [7] has as its target HalM2-modified HalA2-GDVQAE.
Series [8] has as its target peptides with Glu or Lys in the P1′ position (after GDVQAE).
In the next series the target is T9, His6-NisA-GDVQAE, P13068.
T9 chain: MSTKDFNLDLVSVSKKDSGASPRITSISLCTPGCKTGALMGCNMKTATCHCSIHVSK

On to His6-ElxO, for which the Relative (kcat/Km) in the series on Pyr-AAIVA was 0.55; in the series on Pyr-AAIV it was 0.47; in the series with Pyr-MAIVK it was 6.4; with Pyr-DAIVK, 0.12; in the series on Pyr-AAIAK, 0.65; with Obu-RAIVK, 0.62. Besides, the Relative (kcat/Km) in the series on Pyr-AAAVK was 0.12; in the series on Pyr-AAIVKBBIKAAKK, 5.83; in the series on Pyr-RAIVK, 2.26; with Pyr-A, less than 0.01; in the series with Pyr-PAIVK it was 0.05; with Pyr-KAIVK, 1.74. Further, the Relative (kcat/Km) is 3.13 with Pyr-NAIVK; 1 in the series on Pyr-AAIVK; 0.38 in the series with Obu-AAIVK; less than 0.01 with Glx-AAIVK; less than 0.01 in the series on Pyr-AA; 0.02 in the series with Pyr-AAI. Further, the kcat/Km (reduction by His6-ElxO, NADPH absorbance at 340 nm) with Pyr-AAIVA came out at 1.33 M⁻¹ s⁻¹; with Pyr-AAIV it was 1.13 M⁻¹ s⁻¹; in the series on Pyr-MAIVK it was 15.5 M⁻¹ s⁻¹; with Pyr-DAIVK, 0.29 M⁻¹ s⁻¹; in the series on Pyr-AAIAK, 1.59 M⁻¹ s⁻¹; with Obu-RAIVK, 1.51 M⁻¹ s⁻¹. Moreover, the kcat/Km (reduction by His6-ElxO, NADPH absorbance at 340 nm) in the series on Pyr-AAAVK was 0.29 M⁻¹ s⁻¹; in the series with Pyr-AAIVKBBIKAAKK it was 14.2 M⁻¹ s⁻¹; in the series on Pyr-RAIVK it was 5.5 M⁻¹ s⁻¹; in the series on Pyr-A, less than 0.03 M⁻¹ s⁻¹; with Pyr-PAIVK, 0.13 M⁻¹ s⁻¹; in the series on Pyr-KAIVK, 4.22 M⁻¹ s⁻¹. Moreover, the kcat/Km (reduction by His6-ElxO, NADPH absorbance at 340 nm) in the series with Pyr-NAIVK was 7.6 M⁻¹ s⁻¹; in the series with Pyr-AAIVK, 2.43 M⁻¹ s⁻¹; in the series on Obu-AAIVK it was 0.92 M⁻¹ s⁻¹; in the series on Glx-AAIVK it was less than 0.03 M⁻¹ s⁻¹; with Pyr-AA, less than 0.03 M⁻¹ s⁻¹; with Pyr-AAI it was 0.06 M⁻¹ s⁻¹. Also, the “reduction by His6-ElxO with NADPH” value in the series on Pyr-AAVLK and in the series with Pyr-LGPAIK was “His6-ElxO reduced both peptides” each time. Besides, the “reduction by His6-ElxO with NADPH, high-resolution LC-MS” value in the series with lactocin S is “confirming the formation of dihydrolactocin S”. The “reduction by His6-ElxO with NADPH, LC-MS” value in the series with OBu-AGPAIR, in the series on Pyr-BPVLAAVAVAKKK and with Pyr-APVLA was “All the peptides were reduced as confirmed by LC-MS analysis” throughout.
For the molecule “wild type NisA: non-cognate lanthipeptide precursor peptide of nisin, His6-tagged (MSTKDFNLDLVSVSKKDSGASPRITSISLCTPGCKTGALMGCNMKTATCHCSIHVSK; cysteine pairing not given here; also: His6-tagged, tag position not given here)”, the “cleavage by ElxP” value with MBP-ElxP was “does not cleave”.
On to MBP-ElxP, for which the “MBP-ElxP cleavage result by MALDI-TOF MS (+++ complete, ++ partial, + marginal cleavage)” value is given as “+” in the series with His6-ElxA L-4A; “+++” in the series on His6-ElxA L-17A; “+++” with His6-ElxA N-3A; “+++” in the series with His6-ElxA wt; “+” with His6-ElxA D-5A; “++” with His6-ElxA P-2A. For the same molecule, the “MBP-ElxP cleavage result by MALDI-TOF MS (+++ complete, ++ partial, + marginal cleavage)” value with His6-ElxA Q-1A is on record as “+”; in the series with His6-ElxA F-19A it was “++”; with His6-ElxA N-16A it was “+++”; in the series on His6-ElxA D-18A it was “+++”. Moreover, the “fold reduction of the ElxP catalytic efficiency against wild type ElxA” value in the series on His6-ElxA L-4A and in the series with His6-ElxA Q-1A was “reduction of ˜14-fold in the ElxP catalytic efficiency” throughout. Besides, the “catalytic efficiency of cleavage (HPLC, leader peptide formation)” value with His6-ElxA wt is reported as “MBP-ElxP cleaved the wild type ElxA with an efficiency of ˜240 M-'s 1”. Also, in the series on His6-ElxA P-2A, the “efficiency of leader peptide removal (HPLC kinetics, FIG. 3D)” value is “did not obviously decrease the efficiency of MBP-ElxP to remove the N-terminal leader peptide from ElxA”. Further, the “cleavage by ElxP, MALDI-TOF MS” value with His6-NisA is on record as “ElxP does not cleave wild type NisA”.

B1: His6-CylA-27-412 (protein)
chain: MGSSHHHHHHSQDPNSLSNNISFFIDNSQTTAIEEIESELSSEKVDYIQEIGLVSFKNLDDSDRKFIGKYFNVSEGKKLPDFKPEEVNSSILNINILNKDFKSFNWPYKKILSHIDPVKEQLGKDITIALIDSGIDRLHPNLQDNNLRLKNYVNDIELDEYGHGTQVAGVIDTIAPRVNLNSYKVMDGTDGNSINMLKAIVDATNDQVDIINVSLGSYKNMEIDDERFTVEAFRKVVNYARKNNILIVASAGNESRDISTGNEKHIPGGLESVITVGATKKSGDIADYSNYGSNVSIYGPAGGYGDNYKITGQIDAREMMMTYYPTSLVSPLGKAADFPDGYTLSFGTSLATPEVSAALAAIMSKNVDNSKDSNEVLNTLFENADSFIDKNSMLKYKEVRIK
Regarding B1, the “cleavage by CylA, MALDI-TOF MS” value is “The modified peptide was successfully digested upon incubation with CylA” in series [1]; “the leader peptides of both His6-ProcA1.7-GDVQAE and His6-NisA-GDVQAE were successfully removed” in the series with His6-ProcA1.7-GDVQAE; “CylA specifically cleaved after Glu-1 for all three mutant peptides” with ProcA1.7-GDVQAE-T1F; “it also removed the leader peptides from linear CylLL and CylLS” with linear CylLS; “it also removed the leader peptides from linear CylLL and CylLS” with linear CylLL; “the 5 amino acids were successfully removed” in series [4]. Besides, the “cleavage by CylA, MALDI-TOF MS” value in series [6] is “the 5 amino acids were successfully removed”; with ProcA1.7-GDVQAE-T1G, “CylA specifically cleaved after Glu-1 for all three mutant peptides, albeit with a lower efficiency for the T-1G mutant”; with ProcA1.7-GDVQAE-T1W, “CylA specifically cleaved after Glu-1 for all three mutant peptides”; in [7] it was “the leader peptide was successfully removed”; in the series with His6-NisA-GDVQAE, P13068 it was “the leader peptides of both His6-ProcA1.7-GDVQAE and His6-NisA-GDVQAE were successfully removed”. Further, the “cleavage by CylA” value in series [2] is “CylA cleanly removed the leader peptide from both substrates”; in [3] it was “CylA cleanly removed the leader peptide from both substrates”; in [5] it was “Incubation with CylA indeed resulted in cleavage and removal of the His6-tag sequence”; in series [8] it was “it did not accept Glu or Lys in the P1′ position”. Moreover, the “cleavage by CylA, MS” value in the series with modified CylLL and in the series with modified CylLS was “the enzyme also removed the entire leader peptides” each time.
